{
  "source": "paper PMC3897551",
  "about": "(Current biology : CB, 2013)",
  "target": "the molecule itself",
  "test": "two-step photobleaching of single molecules",
  "data": [
    {"protein": "GFP-tagged MCAK containing aa 187-730 (GMΔNT) (domain or fragment, UniProt Q91636 187-730, looked up) GRNNQGRRKSNIVKEMEKMKNKREEQRAQNYERRMKRAQDYDTSVPNWEFGKMIKEFRATMDCHRISMADPAEEHRICVCVRKRPLNKQELSKKEIDIISVPSKNIVLVHEPKLKVDLTKYLENQAFRFDFSFDETATNEVVYRFTARPLVQSIFEGGKATCFAYGQTGSGKTHTMGGDFSGKSQNVSKGVYAFASRDVFLLLDQPRYKHLDLDVFVTFFEIYNGKVFDLLNKKTKLRVLEDAKQEVQVVGLLEKQVISADDVFKMIEIGSACRTSGQTFANTSSSRSHACLQIILRRGSKLHGKFSLVDLAGNERGVDTASADRITRMEGAEINRSLLALKECIRALGQNKSHTPFRESKLTQILRDSFIGENSRTCMIAMLSPGFNSCEYTLNTLRYADRVKELSPQNAETNDDNLQMEDSGGSHASIEGLQLQDDFLLKDEELSTHNSFQDALNRVGELEDKAVDELRELVQKEPEWTNLLQMTEQPDYDLENFVMQAEYLIQERSKVLIALGDSINSLRLALQVEEQASKQISKKKRSNK", "values": [
      {"measurement": "stoichiometry N", "result": 2}
    ]}
  ]
}
